This is an account of results in patent US20090258375A1.

Like-named read-outs stand apart in the source and are kept apart here.

The target in data set [1] is control insect cell lysate (sf9 cells infected with empty Baculovirus). Put plainly: immuno-trap protease assay, control lysate.
For data set [2], the target named is recombinant bovine PAG-12 (fusion protein with the FLAG peptide) (bovine). Put plainly: immuno-trap protease assay on crude insect cell lysate.
In data set [3] the target is recombinant bovine PAG-2 (fusion protein with the FLAG peptide) (bovine) (UniProt Q28057). The data set is described as above.
Data set [4] concerns the target recombinant porcine PAG-2 (FLAG-tagged) (porcine) (UniProt Q29079). The data set is described as above.
The target in data set [5] is control insect cell lysate (sf9 cells infected with empty Baculovirus). Put plainly: immuno-trap protease assay, control lysate (second row).
The target in data set [6] is recombinant bovine PAG-12 (fusion protein with the FLAG peptide) (bovine). Put plainly: immuno-trap protease assay on crude insect cell lysate (second row).
In data set [7] the target is recombinant bovine PAG-2 (fusion protein with the FLAG peptide) (bovine) (UniProt Q28057). The description is as above.
Data set [8] deals with recombinant porcine PAG-2 (FLAG-tagged) (porcine) (UniProt Q29079). The description is as above.
Data set [9] shares this target. The data set can be described thus: immuno-trap protease assay, anti-FLAG with poPAG-2 lysate as positive control.
Data set [10] concerns the target recombinant equine-TSH-beta (equine) (UniProt Q28376). The data set can be described thus: immuno-trap protease assay, anti-FLAG with TSH-beta; TSH-beta has no proteolytic activity, so the reading is background and does not tell whether it was trapped.
Data set [11] deals with bovine serum albumin (bovine) (UniProt P02769). Put plainly: immuno-trap protease assay, 1 ug rabbit immunoglobulins coated, background control, 50 ng blank column.
Chain of UniProt P02769 (P02769 25-607 limits assumed): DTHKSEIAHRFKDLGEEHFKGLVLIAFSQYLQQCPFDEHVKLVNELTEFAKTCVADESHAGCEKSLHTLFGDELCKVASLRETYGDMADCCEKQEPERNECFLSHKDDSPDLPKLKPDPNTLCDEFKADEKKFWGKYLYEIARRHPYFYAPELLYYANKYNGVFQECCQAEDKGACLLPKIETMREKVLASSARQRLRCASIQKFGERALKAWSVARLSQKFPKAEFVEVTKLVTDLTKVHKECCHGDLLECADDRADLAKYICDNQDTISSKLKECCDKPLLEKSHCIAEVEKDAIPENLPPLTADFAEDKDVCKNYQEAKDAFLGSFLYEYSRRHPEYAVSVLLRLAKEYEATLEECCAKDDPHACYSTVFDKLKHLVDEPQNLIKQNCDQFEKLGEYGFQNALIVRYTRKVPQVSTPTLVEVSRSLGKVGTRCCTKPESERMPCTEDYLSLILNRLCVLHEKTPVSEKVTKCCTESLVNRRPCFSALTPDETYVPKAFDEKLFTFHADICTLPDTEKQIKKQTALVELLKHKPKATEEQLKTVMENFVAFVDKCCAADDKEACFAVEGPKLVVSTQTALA
Data set [12] relates to T1, fluorescent cathepsin D/E substrate MOCac-Gly-Lys-Pro-Ile-Leu-Phe-Phe-Arg-Leu-Lys(Dnp)-D-Arg-NH2.
T1 sequence: GKPILFFRLK

The target of data set [13] is T1, fluorescent cathepsin D/E substrate MOCac-Gly-Lys-Pro-Ile-Leu-Phe-Phe-Arg-Leu-Lys(Dnp)-D-Arg-NH2. Put plainly: cell-based or functional assay.
In data set [14] the target is T2, fluorescent cathepsin D/E substrate MOCac-Gly-Lys-Pro-Ile-Leu-Phe-Phe-Arg-Leu-Lys(Dnp)-D-Arg-NH2.
T2 chain: GKPILFFRLK

Consider “anti-FLAG monoclonal antibody (M2; Sigma)”, for which the relative fluorescence of released product (relative fluorescence) in data set [1] stood at 4120; in [2], 42300; in data set [3] it was 27000; in [4] it was 96800; in data set [5], 7760; in data set [6], 23000. The relative fluorescence of released product (relative fluorescence) came out at 26500 in data set [7] and 92300 in data set [8]. For the same molecule, the relative fluorescent product release (relative fluorescence) in [9] was found to be 97400; in data set [10] it was 47000.
In the case of “rabbit immunoglobulins (background control) (antibody)”, the relative fluorescence (counts) of released product in [11] turned out to be 6040 counts.
With “recombinant boPAG-6 (FLAG epitope tag fusion)”, in data set [12], the proteolytic activity result is “recombinant boPAG-6, -8, -9 and -10 have proteolytic activity with acidic pH optima”; the relative fluorescent product release, anti-FLAG immuno-trap protease assay, pH 3.0 (relative fluorescence) was found to be 84000; the relative fluorescent product release, anti-FLAG immuno-trap protease assay, pH 4.0 (relative fluorescence) turned out to be 77900; the relative fluorescent product release, anti-FLAG immuno-trap protease assay, pH 5.0 (relative fluorescence) amounted to 66300. Moreover, in data set [12], the relative fluorescent product release, anti-FLAG immuno-trap protease assay, pH 6.0 (relative fluorescence) is 31300 and the relative fluorescent product release, anti-FLAG immuno-trap protease assay, pH 7.0 (relative fluorescence) came out at 24300.
In the case of “recombinant boPAG-8 (FLAG epitope tag fusion)”, in data set [12], the proteolytic activity result is “recombinant boPAG-6, -8, -9 and -10 have proteolytic activity with acidic pH optima”; the relative fluorescent product release, anti-FLAG immuno-trap protease assay, pH 3.0 (relative fluorescence) amounted to 80600; the relative fluorescent product release, anti-FLAG immuno-trap protease assay, pH 4.0 (relative fluorescence) was 63600; the relative fluorescent product release, anti-FLAG immuno-trap protease assay, pH 5.0 (relative fluorescence) is 56100. For the same molecule, in data set [12], the relative fluorescent product release, anti-FLAG immuno-trap protease assay, pH 6.0 (relative fluorescence) was 31900 and the relative fluorescent product release, anti-FLAG immuno-trap protease assay, pH 7.0 (relative fluorescence) turned out to be 26400.
Regarding “recombinant boPAG-9 (FLAG epitope tag fusion)”, in [12], the proteolytic activity result is “recombinant boPAG-6, -8, -9 and -10 have proteolytic activity with acidic pH optima”; the relative fluorescent product release, anti-FLAG immuno-trap protease assay, pH 3.0 (relative fluorescence) was 72100; the relative fluorescent product release, anti-FLAG immuno-trap protease assay, pH 4.0 (relative fluorescence) turned out to be 55000; the relative fluorescent product release, anti-FLAG immuno-trap protease assay, pH 5.0 (relative fluorescence) was 48100. In [12], this molecule returned a relative fluorescent product release, anti-FLAG immuno-trap protease assay, pH 6.0 (relative fluorescence) of 27800 and a relative fluorescent product release, anti-FLAG immuno-trap protease assay, pH 7.0 (relative fluorescence) of 24400.
On to “recombinant boPAG-10 (FLAG epitope tag fusion)”, for which, in [12], the proteolytic activity entry was “recombinant boPAG-6, -8, -9 and -10 have proteolytic activity with acidic pH optima”; the relative fluorescent product release, anti-FLAG immuno-trap protease assay, pH 3.0 (relative fluorescence) came to 52100; the relative fluorescent product release, anti-FLAG immuno-trap protease assay, pH 4.0 (relative fluorescence) was found to be 42700; the relative fluorescent product release, anti-FLAG immuno-trap protease assay, pH 5.0 (relative fluorescence) worked out at 38800. Besides, in data set [12], the relative fluorescent product release, anti-FLAG immuno-trap protease assay, pH 6.0 (relative fluorescence) was determined as 26500 and the relative fluorescent product release, anti-FLAG immuno-trap protease assay, pH 7.0 (relative fluorescence) was found to be 23600.
As to “recombinant boPAG-17 (FLAG epitope tag fusion)”, in data set [13], the relative fluorescent product release, anti-FLAG immuno-trap protease assay, pH 3.0 (relative fluorescence) came to 34600; the relative fluorescent product release, anti-FLAG immuno-trap protease assay, pH 4.0 (relative fluorescence) was found to be 28600; the relative fluorescent product release, anti-FLAG immuno-trap protease assay, pH 5.0 (relative fluorescence) was 28500; the relative fluorescent product release, anti-FLAG immuno-trap protease assay, pH 6.0 (relative fluorescence) came to 23300. Besides, in data set [13], the relative fluorescent product release, anti-FLAG immuno-trap protease assay, pH 7.0 (relative fluorescence) stood at 23700.
In data set [13], “recombinant boPAG-19 (FLAG epitope tag fusion)” showed a relative fluorescent product release, anti-FLAG immuno-trap protease assay, pH 3.0 (relative fluorescence) of 40300; a relative fluorescent product release, anti-FLAG immuno-trap protease assay, pH 4.0 (relative fluorescence) of 32500; a relative fluorescent product release, anti-FLAG immuno-trap protease assay, pH 5.0 (relative fluorescence) of 32100; a relative fluorescent product release, anti-FLAG immuno-trap protease assay, pH 6.0 (relative fluorescence) of 24300. For the same molecule, the relative fluorescent product release, anti-FLAG immuno-trap protease assay, pH 7.0 (relative fluorescence) in data set [13] was determined as 23300.
For “recombinant boPAG-20 (FLAG epitope tag fusion)”, in that order: 38600, 31300, 31400, 24500 and 23800.
With “recombinant bovine PAG-12 (fusion protein with the FLAG peptide)”, the “proteolytic activity (% relative activity)” value in data set [12] is “maximal activity for boPAG-12 and poPAG-2 was at pH 3.5”.
In data set [13], “recombinant equine-TSH-beta (from UniProt Q28376 21-138)” gave a relative fluorescent product release, anti-FLAG immuno-trap protease assay, pH 3.0 (negative control) (relative fluorescence) of 38300; a relative fluorescent product release, anti-FLAG immuno-trap protease assay, pH 4.0 (negative control) (relative fluorescence) of 33900; a relative fluorescent product release, anti-FLAG immuno-trap protease assay, pH 5.0 (negative control) (relative fluorescence) of 35000; a relative fluorescent product release, anti-FLAG immuno-trap protease assay, pH 6.0 (negative control) (relative fluorescence) of 28200. The same molecule came in with a relative fluorescent product release, anti-FLAG immuno-trap protease assay, pH 7.0 (negative control) (relative fluorescence) in data set [13] of 26600.

B1: recombinant bovine PAG-2 (fusion protein with the FLAG peptide) (protein)
chain: DYKDDDDKIVILPLKKMKTLRETLREKNLLNNFLEEQAYRLSKNDSKITIHPLRNYLDTAYVGNITIGTPPQEFRVVFDTGSANLWVPCITCTSPACYTHKTFNPQNSSSFREVGSPITIFYGSGIIQGFLGSDTVRIGNLVSPEQSFGLSLEEYGFDSLPFDGILGLAFPAMGIEDTIPIFDNLWSHGAFSEPVFAFYLNTNKPEGSVVMFGGVDHRYYKGELNWIPVSQTSHWQISMNNISMNGTVTACSCGCEALLDTGTSMIYGPTKLVTNIHKLMNARLENSEYVVSCDAVKTLPPVIFNINGIDYPLRPQAYIIKIQNSCRSVFQGGTENSSLNTWILGDIFLRQYFSVFDRKNRRIGLAPAV
For the molecule B1, the “proteolytic activity (% relative activity)” value in data set [14] is “Maximal activity for boPAG-2 was at pH 4”.

B2: recombinant porcine PAG-2 (FLAG-tagged) (protein)
chain: DYKDDDDKLVMIPLTKVKSVRESLREKGLLKNFLKEHPYNMIQNLLSKNSSHVQKFSYQPLRNYLDMVYVGNISIGTPPQQFSVVFDTGSSDLWVPSIYCKSKACVTHRSFNPSHSSTFHDRGKSIKLEYGSGKMSGFLGQDTVRIGQLTSTGQAFGLSKEETGKAFEHAIFDGILGLAYPSIAIKGTTTVIDNLKKQDQISEPVFAFYLSSDKEEGSVVMFGGVDKKYYKGDLKWVPLTQTSYWQIALDRITCRGRVIGCPRGCQAIVDTGTSMLHGPSKAVAKIHSLIKHFEKEYVVPCNARKALPDIVFTINNVDYPVPAQAYIRKYVVPCNARKALPDIVFTINNVDYPVPAQAYIRKNANNNRCYSTFEDIMDTLNQREIWILGDVFLRLYFTVYDEGQNRIGLAQAT
For B2, the “proteolytic activity (% relative activity)” value in [14] is “maximal activity for boPAG-12 and poPAG-2 was at pH 3.5”.
